Assay in all cases: cell-based or functional assay
Assay [1] has as its target amyloid β peptide 1-42 in guinea pig plasma (guinea pig) (UniProt Q60495).
The target in assay [2] is amyloid β peptide 1-40 in guinea pig plasma (guinea pig) (UniProt Q60495).
The target of assay [3] is amyloid β peptide 1-42 (human) (human).
Assay [4] deals with amyloid β peptide 1-40 (human) (human).
Sequence of amyloid β peptide 1-40 (human) (human) (peptide, as listed by the source): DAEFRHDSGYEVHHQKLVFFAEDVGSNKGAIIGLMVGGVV

Sequence of amyloid β peptide 1-42 (human) (human) (peptide, as listed by the source): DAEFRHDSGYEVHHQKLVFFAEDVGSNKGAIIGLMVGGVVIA
Sequence of Recombinant Human Neprilysin (R&D Systems) (P08473 52-750 limits assumed): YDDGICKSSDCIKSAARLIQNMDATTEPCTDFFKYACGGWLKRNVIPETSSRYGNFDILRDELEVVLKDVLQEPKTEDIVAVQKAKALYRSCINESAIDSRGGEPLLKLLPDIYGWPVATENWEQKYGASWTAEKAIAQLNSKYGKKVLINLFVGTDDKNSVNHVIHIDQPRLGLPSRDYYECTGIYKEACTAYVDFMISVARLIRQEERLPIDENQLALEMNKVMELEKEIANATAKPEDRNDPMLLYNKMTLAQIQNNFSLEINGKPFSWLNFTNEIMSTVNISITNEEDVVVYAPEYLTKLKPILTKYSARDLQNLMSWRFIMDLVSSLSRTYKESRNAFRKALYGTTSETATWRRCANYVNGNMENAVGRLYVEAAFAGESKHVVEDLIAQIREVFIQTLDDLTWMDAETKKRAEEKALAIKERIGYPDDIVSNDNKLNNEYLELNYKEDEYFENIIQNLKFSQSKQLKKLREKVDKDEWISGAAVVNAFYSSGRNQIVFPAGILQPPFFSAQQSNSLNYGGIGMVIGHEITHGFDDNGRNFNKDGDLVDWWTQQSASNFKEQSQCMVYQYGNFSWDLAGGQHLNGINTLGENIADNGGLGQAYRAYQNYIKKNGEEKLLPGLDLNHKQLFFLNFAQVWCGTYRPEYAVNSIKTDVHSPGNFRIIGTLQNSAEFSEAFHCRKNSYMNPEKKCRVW

“Recombinant Human Neprilysin (R&D Systems) (from UniProt P08473 52-750) (enzyme)”: the reduction of Aβ42 in guinea pig plasma ex vivo compared to vehicle (ELISA), 5 µg/ml, 4 h at 37 °C in assay [1] was greater than 57%. In addition, the degradation of Aβ40 in guinea pig plasma ex vivo compared to vehicle (ELISA), 5 µg/ml, 4 h at 37 °C in assay [2] came to 49%.

Turning to “mouse version of the Fc-Nep (mFc-Nep) (Fc fusion)”, in assay [3], the % degradation of Aβ 1-42 in APPswe-tg mouse plasma at highest concentration (100 µg/ml), 1 h room temperature, ELISA turned out to be 53%; the % degradation of Aβ 1-42 in human plasma at highest concentration (100 µg/ml), 1 h room temperature, ELISA stood at 19%; the EC50 of degradation of Aβ 1-42 in APPswe-tg mouse plasma came out at 820 nM; the EC50 of degradation of Aβ 1-42 in human plasma worked out at 180 nM. Moreover, in assay [4], the % degradation of amyloid β 1-40 in APPswe-tg mouse plasma at highest concentration (100 µg/ml), 1 h room temperature, ELISA was 77%; the % degradation of amyloid β 1-40 in human plasma at highest concentration (100 µg/ml), 1 h room temperature, ELISA was 71%; the EC50 of degradation of Aβ 1-40 in APPswe-tg mouse plasma came to 340 nM; the EC50 of degradation of Aβ 1-40 in human plasma was found to be 400 nM.

For the origin of these results see patent US20080242590A1, “New Method 706” (ASTRAZENECA AB, priority 2007, published 2008).
